Source: paper PMC10590968, “Deciphering the role of recurrent FAD-dependent enzymes in bacterial phosphonate catabolism” (iScience, 2023)

Tests used:
PbfD1 = target: T1, PbfD1 (Acinetobacter baumannii, UniProt P0DY72); experiment: UV-vis spectra of bound flavin; cofactor released by heat or SDS; format: binding; settings: noncovalent; 10 μM FAD added at lysis; 50 mM TEA-HCl pH 8.0
T1 construct: gene pbfD; synthetic codon-optimised gene in pET28a, N-terminal His tag, expressed in E. coli Tuner (DE3), HisTrap; noncovalent FAD
T1 sequence (P0DY72 1-384): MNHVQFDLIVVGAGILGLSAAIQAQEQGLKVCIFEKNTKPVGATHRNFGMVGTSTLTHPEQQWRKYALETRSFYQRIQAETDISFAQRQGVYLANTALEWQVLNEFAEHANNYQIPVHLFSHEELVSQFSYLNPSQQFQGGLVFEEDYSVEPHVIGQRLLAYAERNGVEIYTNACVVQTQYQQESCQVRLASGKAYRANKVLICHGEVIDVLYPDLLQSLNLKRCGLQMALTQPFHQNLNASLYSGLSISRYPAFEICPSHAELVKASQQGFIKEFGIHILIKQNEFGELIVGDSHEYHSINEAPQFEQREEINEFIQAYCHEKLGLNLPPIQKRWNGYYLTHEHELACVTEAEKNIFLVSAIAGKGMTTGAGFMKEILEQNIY

PbfD2 = target: T2, PbfD2 (Mariniblastus fucicola, UniProt A0A5B9PNB8); experiment: as above; format: binding; settings: noncovalent; 10 μM FAD added at lysis; 50 mM TEA-HCl pH 8.0
T2 construct: gene pbfD; noncovalent FAD
T2 sequence (A0A5B9PNB8 1-373): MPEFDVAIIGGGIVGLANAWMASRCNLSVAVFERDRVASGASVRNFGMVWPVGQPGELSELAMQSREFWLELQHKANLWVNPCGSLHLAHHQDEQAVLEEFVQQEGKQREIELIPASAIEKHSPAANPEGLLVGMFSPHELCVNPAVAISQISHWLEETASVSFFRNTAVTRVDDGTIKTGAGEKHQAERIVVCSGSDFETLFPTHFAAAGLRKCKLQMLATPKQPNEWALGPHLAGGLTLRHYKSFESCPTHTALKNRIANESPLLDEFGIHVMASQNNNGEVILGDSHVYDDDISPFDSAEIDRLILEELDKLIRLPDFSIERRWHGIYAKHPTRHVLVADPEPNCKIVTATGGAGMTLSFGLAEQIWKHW

PbfC = target: T3, PbfC (Azospirillum sp. B510, UniProt P0DY71); experiment: as above; format: binding; settings: noncovalent; 10 μM FAD added during purification; 50 mM TEA-HCl pH 8.0
T3 construct: synthetic codon-optimised gene in pET28a, N-terminal His tag, expressed in E. coli Tuner (DE3), HisTrap and SEC; noncovalent FAD
T3 sequence (P0DY71 1-415): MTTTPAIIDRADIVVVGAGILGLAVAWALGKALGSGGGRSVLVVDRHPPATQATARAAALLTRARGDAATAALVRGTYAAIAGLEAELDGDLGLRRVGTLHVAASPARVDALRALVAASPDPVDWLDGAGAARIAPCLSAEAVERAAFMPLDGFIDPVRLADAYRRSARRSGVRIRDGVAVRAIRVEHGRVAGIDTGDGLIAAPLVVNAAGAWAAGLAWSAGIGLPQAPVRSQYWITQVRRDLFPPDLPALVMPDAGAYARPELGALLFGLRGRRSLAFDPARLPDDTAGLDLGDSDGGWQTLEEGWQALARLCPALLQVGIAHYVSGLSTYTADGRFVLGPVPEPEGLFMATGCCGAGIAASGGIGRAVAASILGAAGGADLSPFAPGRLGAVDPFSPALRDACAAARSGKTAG

purified protein [1] = substrate: CNCCP(=O)(O)O; experiment: purified protein
purified protein [2] = substrate: NCCP(=O)(O)O; experiment: purified protein
[3] = substrate: CNCCP(=O)(O)O; experiment: coupled PhnX-ADH assay, NADH A340, Michaelis-Menten fit; format: biochemical, Acinetobacter baumannii; settings: air-saturated (~0.25 mM O2), 50 mM TEA-HCl pH 8.0, 2.5 mM MgCl2, 25°C
Excerpt: (§1) coupled PhnX-ADH assay, NADH A340, Michaelis-Menten fit on PbfD1

[4] = substrate: NCCP(=O)(O)O; experiment: as above; format: biochemical, Acinetobacter baumannii; settings: air-saturated (~0.25 mM O2), 50 mM TEA-HCl pH 8.0, 2.5 mM MgCl2, 25°C
Excerpt: as §1

[5] = substrate: CN(C)CCP(=O)(O)O; experiment: as above; format: biochemical, Acinetobacter baumannii; settings: air-saturated (~0.25 mM O2), 50 mM TEA-HCl pH 8.0, 2.5 mM MgCl2, 25°C
Excerpt: as §1

[6] = air-saturated (~0.25 mM O2), 50 mM TEA-HCl pH 8.0, 2.5 mM MgCl2, 25°C
[7] = 80 μM DCPIP, 3 mM PMS, 50 mM TEA-HCl pH 8.0, 25°C

Cc1cc2nc3c(=O)[nH]c(=O)nc-3n(C[C@H](O)[C@H](O)[C@H](O)COP(=O)(O)OP(=O)(O)OC[C@H]3O[C@@H](n4cnc5c(N)ncnc54)[C@H](O)[C@@H]3O)c2cc1C [FAD]
UV-vis spectra of bound flavin; cofactor released by heat or SDS (PbfD1): the spectrum of the released cofactor was typical of FAD
UV-vis spectra of bound flavin; cofactor released by heat or SDS (PbfD2): the spectrum of the released cofactor was typical of FAD
UV-vis spectra of bound flavin; cofactor released by heat or SDS (PbfC): the spectrum of the released cofactor was typical of FAD

B1: PbfD2 (Mariniblastus fucicola) (protein)
chain: T2 sequence (A0A5B9PNB8 1-373)
Km (purified protein [1]; [6]): 0.36 ± 0.02 mM
kcat (purified protein [1]; [6]): 4.9 ± 0.07 s⁻¹
kcat/Km (purified protein [1]; [6]): 13500 ± 550 M⁻¹ s⁻¹
Km (purified protein [2]; [6]): 2.6 ± 0.32 mM
kcat (purified protein [2]; [6]): 8.9 ± 0.3 s⁻¹
kcat/Km (purified protein [2]; [6]): 3400 ± 320 M⁻¹ s⁻¹

B2: PbfC (Azospirillum sp. B510) (protein)
chain: T3 sequence (P0DY71 1-415)
Km (purified protein [1]; [7]): 0.20 ± 0.01 mM
kcat (purified protein [1]; [7]): 9 ± 0.2 s⁻¹
kcat/Km (purified protein [1]; [7]): 45000 ± 2700 M⁻¹ s⁻¹
Km (purified protein [2]; [7]): 20 ± 1.7 mM
kcat (purified protein [2]; [7]): 2.2 ± 0.1 s⁻¹
kcat/Km (purified protein [2]; [7]): 110 ± 6 M⁻¹ s⁻¹

B3: PbfD1 (Acinetobacter baumannii) (protein)
chain: T1 sequence (P0DY72 1-384)
notes: synthetic codon-optimised gene in pET28a, N-terminal His tag, expressed in E. coli Tuner (DE3), HisTrap; noncovalent FAD
Km [3]: 5.8 ± 0.62 mM
kcat [3]: 13.2 ± 0.54 s⁻¹
kcat/Km [3]: 2300 ± 160 M⁻¹ s⁻¹
Km [4]: 71 ± 16 mM
kcat [4]: 9.1 ± 1.7 s⁻¹
kcat/Km [4]: 130 ± 6 M⁻¹ s⁻¹
Km [5]: 54 ± 14 mM
kcat [5]: 22 ± 4.5 s⁻¹
kcat/Km [5]: 400 ± 26 M⁻¹ s⁻¹
